Assay results published in paper PMC3228521 (Molecular bioSystems, 2011).
Positions count from the first letter of the chain named. In names and notes the source's numbering stands. Where two headings read alike, the source gives them in different places.

B1: UBZ-C (a.a. 545~608) of S. cerevisiae Polη, GST fusion (domain or fragment, UniProt Q04049 545-608, looked up)
chain: EKTPKLECCKYQVTFTDQKALQEHADYHLALKLSEGLNGAEESSKNLSFGEKRLLFSRKRPNSQ
B2: UBZ-N (a.a. 515~580) of S. cerevisiae Polη, GST fusion (domain or fragment, UniProt Q04049 515-580, looked up)
chain: VVDMFGNQVHTFKSSAGKEDEEKTTSSKADEKTPKLECCKYQVTFTDQKALQEHADYHLALKLSEG
B3: ubiquitin (S. cerevisiae) (natural protein)
chain: not shown

Experiments:
Assay in all cases: SPR
[1] = molecular target: B3
[2] = molecular target: B3; remark: listed apart in the source
[3] = molecular target: T1, C-term scPolη (a.a. 515~632) HH568,572AA, GST fusion (S. cerevisiae, UniProt Q04049 515-632, HH568,572AA | HH568,572AA)
T1 sequence (looked up): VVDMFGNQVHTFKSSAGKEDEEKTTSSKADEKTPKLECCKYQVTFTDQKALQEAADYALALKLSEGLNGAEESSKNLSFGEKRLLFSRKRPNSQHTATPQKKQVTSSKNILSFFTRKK

[4] = molecular target: T2, C-term scPolη (a.a. 515~632) CC552,553AA, GST fusion (S. cerevisiae, UniProt Q04049 515-632, CC552,553AA | CC552,553AA)
T2 sequence (looked up): T1 sequence (looked up) with C38A, C39A, A54H, A58H

[5] = molecular target: T3, UBZ-CN (a.a. 515~615) of S. cerevisiae Polη, GST fusion (S. cerevisiae, UniProt Q04049 515-615)
T3 sequence (looked up): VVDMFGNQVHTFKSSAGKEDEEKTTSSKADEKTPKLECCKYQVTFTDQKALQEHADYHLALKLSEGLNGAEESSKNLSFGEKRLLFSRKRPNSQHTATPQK

B1 was tested, and the Kd [1] was 15.8 ± 3.7 µM.

Binder B2 has a Kd [1] of 18.2 ± 2.2 µM.

With EKTPKLECCKYQVTFTDQKALQEHADYHLALKLSEG (domain or fragment, UniProt Q04049 545-580, looked up) [minimal S. cerevisiae Polη UBZ domain (a.a. 545–580) with N-terminal GST tag, wild type] the Kd [2] was 14.6 ± 2.5 µM.

Binder EKTPKLECCKYQVTFTDQKALQEAADYALALKLSEG (domain or fragment, S. cerevisiae, UniProt Q04049 545-580, looked up) [scPolη UBZ domain (a.a. 545–580) HH568,572AA, GST fusion] has a Kd [2] of 22.2 ± 4.8 µM.

Binder EKTPKLECCKYQVTFTDQKALQEHADYHLFLKLSEG (domain or fragment, S. cerevisiae, UniProt Q04049 545-580, looked up) [scPolη UBZ domain (a.a. 545–580) A574F, GST fusion] has a Kd [2] of 38.6 ± 8.6 µM.

In the case of EKTPKLECCKYQVTFTDQKALQEHPDYHLALKLSEG (domain or fragment, S. cerevisiae, UniProt Q04049 545-580, looked up) [scPolη UBZ domain (a.a. 545–580) A569P, GST fusion], the Kd [2] is reported as 43.1 ± 10.2 µM.

EKTPKLECCKYQVTFTDQKALPEHADYHLALKLSEG (domain or fragment, S. cerevisiae, UniProt Q04049 545-580, looked up) [scPolη UBZ domain (a.a. 545–580) Q566P, GST fusion] was tested, and the Kd [2] was 48.4 ± 7.2 µM.

Work on EKTPKLECCKYQVTFTDQKALQEHADYHLPLKLSEG (domain or fragment, S. cerevisiae, UniProt Q04049 545-580, looked up) [scPolη UBZ domain (a.a. 545–580) A574P, GST fusion] yielded a Kd [2] of 55.3 ± 5.5 µM.

EKTPKLEAAKYQVTFTDQKALQEHADYHLALKLSEG (domain or fragment, S. cerevisiae, UniProt Q04049 545-580, looked up) [scPolη UBZ domain (a.a. 545–580) CC552,553AA, GST fusion] showed a Kd [2] of 22.3 ± 4.1 µM.

EKTPKLECCKYQVTFTDQKALQEHAAYHLALKLSEG (domain or fragment, S. cerevisiae, UniProt Q04049 545-580, looked up) [scPolη UBZ domain (a.a. 545–580) D570A, GST fusion] showed a Kd [2] of 23.6 ± 2.4 µM.

B3 gave a Kd [3] of 0.59 ± 0.14 µM, a Kd [4] of 0.3 ± 0.1 µM and a Kd [5] of 11.1 ± 1.8 µM.
